These results are taken from article PMC10321576 (2023).

Bridge positions count the residues as written; N and C are the ends. Square brackets hold non-standard residues; d marks the D form. Ends that are not written are not given here. Lys(Me3) = C[N+](C)(C)CCCC[C@H](N)C(=O)O

To fix the notation:
B5: KDM7B (PHF8, JHDM1F) dual domain (PHD-JmjC) (domain or fragment)
chain: MASVPVYCLCRLPYDVTRFMIECDMCQDWFHGSCVGVEEEKAADIDLYHCPNCEVLHGPSIMKKRRGSSKGHDTHKGKPVKTGSPTFVRELRSRTFDSSDEVILKPTGNQLTVEFLEENSFSVPILVLKKDGLGMTLPSPSFTVRDVEHYVGSDKEIDVIDVTRQADCKMKLGDFVKYYYSGKREKVLNVISLEFSDTRLSNLVETPKIVRKLSWVENLWPEECVFERPNVQKYCLMSVRDSYTDFHIDFGGTSVWYHVLKGEKIFYLIRPTNANLTLFECWSSSSNQNEMFFGDQVDKCYKCSVKQGQTLFIPTGWIHAVLTPVDCLAFGGNFLHSLNIEMQLKAYEIEKRLSTADLFRFPNFETICWYVGKHILDIFRGLRENRRHPASYLVHGGKALNLAFRAWTRKEALPDHEDEIPETVRTVQLIKDLAREIRLVEDIFQQN

In assay [1] the target is KDM7A (KIAA1718) dual domain. As to the kind of experiment: ITC. In general terms: ITC needs no label: the signal is the heat of the interaction.
For assay [2], the target named is T1, KDM7A (KIAA1718) PHD-finger.
T1 chain: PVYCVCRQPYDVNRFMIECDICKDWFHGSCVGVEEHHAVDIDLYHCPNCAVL
In words: ITC.

A further assay addresses T2, DIDO1 PHD-finger.
T2 chain: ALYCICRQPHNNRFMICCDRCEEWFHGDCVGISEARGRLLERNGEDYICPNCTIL
As to the kind of experiment: BLI.

The target in assay [3] is T3, ING2 PHD-finger.
T3 chain: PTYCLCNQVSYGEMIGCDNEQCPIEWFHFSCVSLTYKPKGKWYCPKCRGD
In words: BLI. (In BLI a coated tip is dipped into the sample, and binding shifts an interference pattern.)

Assay [4] concerns the target SPIN1 triple tudor domain. As to the kind of experiment: BLI.
Assay [5] has as its target T4, KDM7C (PHF2) PHD-finger.
T4 chain: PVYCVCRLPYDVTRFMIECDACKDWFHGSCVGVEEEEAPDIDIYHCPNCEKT
As to the kind of experiment: BLI.

For assay [6], the target named is KDM7A (KIAA1718) dual domain. In words: BLI.
For assay [7], the target named is T1, KDM7A (KIAA1718) PHD-finger. In words: BLI.
Assay [8] deals with T5, TAF3 PHD-finger.
T5 chain: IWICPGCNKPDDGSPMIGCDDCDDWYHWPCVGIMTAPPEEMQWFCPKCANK
In words: BLI.

Assay [9] addresses T1, KDM7A (KIAA1718) PHD-finger. As to the kind of experiment: ITC.
For assay [10], the target named is B5.
Assay [11] deals with T3, ING2 PHD-finger.
In assay [12] the target is SPIN1 triple tudor domain.
Assay [13] addresses T4, KDM7C (PHF2) PHD-finger.
The target in assay [14] is KDM7A (KIAA1718) dual domain.
In assay [15] the target is T1, KDM7A (KIAA1718) PHD-finger.
For assay [16], the target named is T5, TAF3 PHD-finger.
The next assay deals with T6, KDM5A PHD3 PHD-finger.
T6 chain: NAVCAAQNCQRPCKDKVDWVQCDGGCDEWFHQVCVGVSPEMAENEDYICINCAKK

The target of assay [17] is T7, KDM7B PHD-finger (UniProt Q9UPP1-2 1-447).
T7 chain: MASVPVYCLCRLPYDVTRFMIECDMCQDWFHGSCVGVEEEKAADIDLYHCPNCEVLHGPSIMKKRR
In words: ITC; His-Trx-tagged PHD.

In assay [18] the target is T7, KDM7B PHD-finger.
The next assay deals with OC3. In words: ITC.

KDM7A (KIAA1718) dual domain, sequence (chain, as listed by the source): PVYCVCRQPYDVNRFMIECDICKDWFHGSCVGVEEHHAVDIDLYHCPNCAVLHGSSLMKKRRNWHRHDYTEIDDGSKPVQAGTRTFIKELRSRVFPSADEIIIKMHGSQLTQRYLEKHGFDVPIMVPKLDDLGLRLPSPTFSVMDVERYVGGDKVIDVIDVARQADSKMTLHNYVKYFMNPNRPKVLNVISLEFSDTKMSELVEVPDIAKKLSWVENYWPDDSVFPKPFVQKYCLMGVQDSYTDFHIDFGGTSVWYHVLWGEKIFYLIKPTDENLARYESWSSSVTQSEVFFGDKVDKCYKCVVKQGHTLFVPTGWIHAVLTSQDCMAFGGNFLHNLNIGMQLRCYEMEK
SPIN1 triple tudor domain, sequence (chain, as listed by the source): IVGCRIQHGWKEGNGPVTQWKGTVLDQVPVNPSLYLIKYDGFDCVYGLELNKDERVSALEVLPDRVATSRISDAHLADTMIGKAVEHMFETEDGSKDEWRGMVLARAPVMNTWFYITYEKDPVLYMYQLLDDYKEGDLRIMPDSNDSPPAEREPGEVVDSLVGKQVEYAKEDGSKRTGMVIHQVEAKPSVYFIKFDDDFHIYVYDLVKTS

B1: OC9, de novo cyclic peptide from mRNA display (peptide)
chain: {CH2CO}-YYLTHPYPSVFRTC
modifications: thioether N-14
By Kd is commonly meant the constant that tells how readily two partners part at equilibrium. Higher therefore signals weaker binding. For orientation: IC50 means the concentration at which inhibition is half-maximal. A low value points to greater potency in that assay. For B1, the Kd in [1] is 31.6 nM; in [2], 31.6 nM; with DIDO1 PHD-finger, above 1000 nM; in the assay with ING2 PHD-finger [3], above 1000 nM; in [4], above 1000 nM; with KDM7C (PHF2) PHD-finger [5], 1 nM. In addition, the Kd in assay [6] was 39.8 nM; in assay [7], 20 nM; with TAF3 PHD-finger [8], above 1000 nM; in [9], 33 nM; with KDM7B PHD-finger [17], 8 nM. Also, the IC50 was 100 nM in assay [10]; above 5010 nM with ING2 PHD-finger [11]; above 2000 nM in [12]; 25.1 nM with KDM7C (PHF2) PHD-finger [13]; 126 nM in [14]; 63.1 nM in assay [15]. Besides, the IC50 in the assay with TAF3 PHD-finger [16] and in the assay with KDM5A PHD3 PHD-finger was above 5010 nM throughout.

B2: OC9 with H5 replaced with D-alanine (peptide)
chain: YYLT[dA]PYPSVFRTC
modifications: ends and bridges not checked
In the case of B2, inhibition in the assay with KDM7B PHD-finger [18] was half-maximal at 20 nM (IC50).

B3: OC9 V10Kme3 (peptide)
chain: YYLTHPYPS[Lys(Me3)]FRTC
modifications: ends and bridges not checked
As to B3, inhibition with KDM7B PHD-finger [18] was half-maximal at 234 nM (IC50).

B4: OC9 with T4 replaced with D-alanine (peptide)
chain: YYL[dA]HPYPSVFRTC
modifications: ends and bridges not checked
Take B4: in the assay with KDM7B PHD-finger [18], the IC50 was 45 nM.
In turn, B5 came in with a Kd with OC3 of 163 nM.
